Source: patent publication US20190241662A1 (ADAGENE, published 2019)
Positions count from the first letter of the chain named.

Columns and labels:
[1] = biological target: T1, recombinant human CTLA4-Fc (human, UniProt P16410 36-162); test: ELISA; EC50 divided by the EC50 of TY21580
T1 construct: also called human CTLA4 fused with human FC fragment; CTLA4-Fc (Sino Biological, 11159-H03H)
T1 sequence (looked up): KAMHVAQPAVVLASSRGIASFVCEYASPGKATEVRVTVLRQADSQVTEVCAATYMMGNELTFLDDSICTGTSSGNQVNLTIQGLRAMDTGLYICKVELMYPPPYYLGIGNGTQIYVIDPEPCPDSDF
Protocol: (§1) Plates were blocked with PBS supplemented with 3% non-fat milk at 37° C. for 1 hour. After washing, 100 μL of 3-fold serial dilutions of antibodies were added to each well. After incubation at 37° C. for 1 hour, plates were washed four times, and 100 μL HRP conjugated anti-human IgG (Fab specific) (1:6000 dilution) was added to each well. Plates were incubated at 37° C. for 1 hour, washed four times, and then 50 μL TMB substrate solution was added to each well, and the plate was incubated at room temperature. […] The EC₅₀ was evaluated by fitting the ELISA data using the asymmetrical sigmoidal (five-parameter logistic equation) model of GraphPad Prism 6 software.

[2] = biological target: T1, recombinant human CTLA4-Fc; test: ELISA, coated human CTLA4-Fc (as in Example 8)
Protocol: as §1

[3] = biological target: T1, recombinant human CTLA4-Fc; test: ELISA, coated human CTLA4-Fc (as in Example 8); remark: listed apart in the source
Protocol: as §1

[4] = biological target: T1, recombinant human CTLA4-Fc; test: ELISA; EC50 divided by the EC50 of TY21580; remark: listed apart in the source
Protocol: as §1

[5] = biological target: T1, recombinant human CTLA4-Fc; test: ELISA on plate-coated recombinant human CTLA4-Fc, detection with HRP anti-human IgG (Fab specific)
Protocol: as §1

[6] = biological target: T1, recombinant human CTLA4-Fc; test: ELISA, coated human CTLA4-Fc (as in Example 8); remark: listed apart in the source
Protocol: as §1

[7] = biological target: T1, recombinant human CTLA4-Fc; test: ELISA, coated human CTLA4-Fc
Protocol: as §1
(§2) The purified activatable antibodies were treated with the proteases which recognize the cleavage sequences, and were then tested to determine whether removal of the masking peptide restored their activity.

[8] = biological target: T1, recombinant human CTLA4-Fc; test: ELISA, coated human CTLA4-Fc; EC50 divided by the EC50 of TY21580
Protocol: as §1, §2

[9] = biological target: T1, recombinant human CTLA4-Fc; test: ELISA; EC50 divided by the EC50 of TY21580; remark: listed apart in the source
Protocol: as §1

[10] = biological target: T2, full-length human CTLA4 expressed on cells (human, UniProt P16410 36-223); test: flow cytometry blocking: HEK293F cells with human CTLA4, 100 nM antibody, then 100 nM CD86-Fc-Bio (blocked ligand); PBSA panel: Mean 10678, 12.2%
T2 construct: whole, on cells; also called HEK293F/hCTLA-4 cells; HEK293F/hCTLA4 cells
T2 sequence (looked up): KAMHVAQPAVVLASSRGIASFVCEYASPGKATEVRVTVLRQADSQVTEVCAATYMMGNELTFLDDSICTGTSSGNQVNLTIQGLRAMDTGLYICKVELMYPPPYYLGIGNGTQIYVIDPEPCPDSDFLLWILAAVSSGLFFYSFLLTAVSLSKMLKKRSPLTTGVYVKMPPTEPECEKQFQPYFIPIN
Protocol: (§3) Antibodies were also tested for their ability to block binding of CTLA4 to its cognate ligands CD80 and CD86 by flow cytometry. The plasmid encoding full-length human CTLA4 was transiently expressed in HEK293F cells. Cells were washed with staining buffer (PBSA buffer including 1.76 mM KH₂PO₄, 10.14 mM Na₂HPO₄.12H₂O, 2.68 mM KCl, 136.89 mM NaCl and 1% BSA), and resuspended in staining buffer containing 100 nM test antibodies. […] Cells were washed once, and analyzed by CytoFlex flow cytometry.

[11] = biological target: T2, full-length human CTLA4 expressed on …; test: flow cytometry, transfected HEK293F cells, antibody concentration not given
Protocol: (§4) The affinities of the antibodies were also assessed against human and mouse CTLA4 transiently expressed on the surface of HEK293F cells (FIG. 2). Briefly, HEK293F cells were transfected with a plasmid expressing full-length human, monkey or mouse CTLA4 from a bicistronic IRES vector also encoding EGFP, and EGFP expression was used to identify the transfected cells. After 48 hours, the mammalian cell suspension (2×10⁵/well) was transferred to an Eppendorf tube, centrifuged, the supernatant was discarded, the cells were resuspended with 1 mL PBSA (to a density is 4×10⁶ cells/mL), and added to a 96 well plate. […] The cells were then washed once prior to analysis by flow cytometry (Beckman® CytoFlex).

[12] = biological target: T3, recombinant human CTLA4 fused with human Fc and His tag (human, UniProt P16410 36-162, limits assumed); test: competition ELISA: plate-bound human CTLA4-Fc-His, biotinylated CD80 as blocked ligand
T3 construct: Coated in the CD80 ELISA, biotinylated and in solution in the CD86 ELISA; also called biotinylated human CTLA4 fused with human FC and His tag
T3 sequence (looked up): T1 sequence (looked up)
Protocol: Antibodies were then tested for their ability to block binding of CTLA4 to its cognate ligands CD80 and CD86 by ELISA. […] Plates were blocked with PBS supplemented with 2% (w/v) skim milk at 37° C. for 1 hour. […] Plates were washed four times, and 100 μL HRP-neutravidin (1:1000) was added to each well and incubated at 37° C. for 1 hour. Plates were washed as previously described, and 50 μL TMB substrate solution was added and incubated at room temperature for 5 minutes before the reaction was stopped by 50 μL sulfate acid (2M).

[13] = biological target: T2, full-length human CTLA4 expressed on …; test: flow cytometry blocking: HEK293F cells with human CTLA4, 100 nM antibody, then 100 nM CD80-Fc-Bio (blocked ligand); PBSA panel: Mean 157692, 26.3%
Protocol: as §3

[14] = biological target: T4, full-length mouse CTLA4 expressed on HEK293F cells (mouse, UniProt P09793 36-223); test: flow cytometry, transfected HEK293F cells [Cont.]
T4 construct: whole, on cells
Protocol: as §4

[15] = biological target: T4, full-length mouse CTLA4 expressed on …; test: flow cytometry, transfected HEK293F cells, antibody concentration not printed [Cont.]
Protocol: as §4

[16] = biological target: T2, full-length human CTLA4 expressed on …; test: as above
Protocol: as §4

[17] = biological target: mouse CTLA4 fused with human FC fragment (mouse, UniProt P09793 36-162, limits assumed); test: ELISA, captured Fab, CTLA4-Fc titrated
[18] = biological target: T1, recombinant human CTLA4-Fc; test: BLI Octet, CTLA4-Fc on AHC sensor, Fab 10 ug/mL
Protocol: Proprietary phagemid libraries (see PCT application number PCT/CN2017/098333, incorporated herein by reference in its entirety; see also PCT application number PCT/CN2017/098299, incorporated herein by reference in its entirety) were employed to pan against human CTLA4 antigens. A total of 3-5 rounds of panning were conducted. After the final round of panning, single-colony supernatant ELISA was performed to identify the primary hits that specifically recognized human CTLA4 (see e.g., UniProt Accession Number P16410). The primary hits were defined as those whose ELISA signals were at least twice that of background. The hits were then sequenced, and the unique clones were expressed in E. coli and purified. Their affinities against human CTLA4 were measured by ForteBio Octet RED96 Systems. […] The acquired ForteBio data were processed with Data Acquisition software 7.1, and kinetic data were fitted to a 1:1 Langmuir binding model.

B1: TY22402 (antibody, IgG1, V domains shown)
VH: EVQLVESGGGLVQPGGSLRLSCAASGYSISSGYHWSWIRQAPGKGLEWLARIDWDDDKYYSTSLKSRLTISRDNSKNTLYLQLNSLRAEDTAVYYCARSYVYFDYWGQGTLVTVSS
VL: EVGSYIVHHSDCDAFYPYCDSSGRSAGGGGSPLGLAGSGGSDIQLTQSPSSLSASVGDRVTITCRASQSVRGRFLAWYQQKPGKAPKLLIYDASNRATGIPSRFSGSGSGTDFTLTISSLQPEDFATYYCQQSSSWPPTFGQGTKVEIKR
notes: IgG1; peptide fused to the N-terminus of the light chain of TY21580
[1]
  masking efficiency: 243
[2]
  EC50: 54 nM
[3]
  EC50: 116 nM
[4]
  masking efficiency: 554

B2: TY22566 (antibody, IgG1, V domains shown)
VH: B1 VH
VL: EVGSYPNPASDCVPYYYACAYSGRSAGGGGSPLGLAGSGGSDIQLTQSPSSLSASVGDRVTITCRASQSVRGRFLAWYQQKPGKAPKLLIYDASNRATGIPSRFSGSGSGTDFTLTISSLQPEDFATYYCQQSSSWPPTFGQGTKVEIKR
notes: IgG1
[5]
  EC50 (read off the curve): ~200 nM

B3: TY22563 (antibody, IgG1, V domains shown)
VH: B1 VH
VL: B1 VL with I6Y, V7S, H8A, H9Y, S10P, D11A, A14S, F15H, D20Q
notes: IgG1
[5]
  EC50 (read off the curve): ~60 nM

B4: TY22404 (antibody, IgG1, V domains shown)
VH: B1 VH
VL: B2 VL with A9S
notes: as for B1
[1]
  masking efficiency: 308
[2]
  EC50: 68.4 nM
[3]
  EC50: 122 nM
[6]
  EC50: 117 nM
[7]
  EC50: 96.8 nM
  LogEC50: -7.01
[8]
  masking efficiency: 216
[9]
  masking efficiency: 469
[4]
  masking efficiency: 572

B5: TY21587 (antibody, V domains shown)
VH: EVQLVESGGGLVQPGGSLRLSCAASGFTFSDYGIHWVRQAPGKGLEWIGEIYHSGSTYYSPSLKSRVTISRDNSKNTLYLQLNSLRAEDTAVYYCARDVAPGSSGYYDGFDFWGQGTLVTVSS
VL: DIQLTQSPSSLSASVGDRVTITCRASQGIGSSLAWYQQKPGKAPKLLIYDASNRATGIPSRFSGSGSGTDFTLTISSLQPEDFATYYCQQYDQWPPWTFGQGTKVEIK
notes: human IgG1 (hIgG1) from Fab hit B15722
[10]
  % of cells in upper right quadrant (CD86-positive) in the presence of the antibody: 6.59%
  Mean of the CD86 binding signal in the presence of the antibody: 5710
[11]
  % of cells in upper right quadrant (Q2): 23.6%
[12]
  IC50 (read off the curve): ~30 nM
[13]
  % of cells in upper right quadrant (CD80-positive) in the presence of the antibody: 25.8%
  Mean of the CD80 binding signal in the presence of the antibody: 85700

B6: TY21589 (antibody, V domains shown)
VH: EVQLVESGGGLVQPGGSLRLSCAASGFTFSDYWIHWVRQAPGKGLEWIGWISPSGGGTKYAQKFQGRVTISRDNSKNTLYLQLNSLRAEDTAVYYCARGAYEFDYWGQGTLVTVSS
VL: DIQLTQSPSSLSASVGDRVTITCRASQSVSSRFLAWYQQKPGKAPKLLIYDASNRATGIPSRFSGSGSGTDFTLTISSLQPEDFATYYCQQSYPTPLTFGQGTKVEIK
notes: human IgG1 (hIgG1) from Fab hit B15740
[10]
  % of cells in upper right quadrant (CD86-positive) in the presence of the antibody: 0.55%
  Mean of the CD86 binding signal in the presence of the antibody: 6660
[14]
  binding result: no binding (tested: not printed on the sheet)
[15]
  % of cells in upper right quadrant (Q2): 1.36%
[16]
  % of cells in upper right quadrant (Q2): 29.7%
[13]
  % of cells in upper right quadrant (CD80-positive) in the presence of the antibody: 27.5%
  Mean of the CD80 binding signal in the presence of the antibody: 110000

B7: B15740 (Fab, V domains shown)
VH: B6 VH
VL: DIQLTQSPSSLSASVGDRVTITCRASQSVSSRFLAWYQQKPGKAPKLLIYDASNRATGIPSRFSGSGSGTDFTLTISSLQPEDFATYYCQQSYPTPLTFGQGTKVEIKR
notes: Fab from E. coli; also called Fab hit of TY21589
[17]
  binding result: no binding
[18]
  Kd: 14.5 nM
  koff: 0.00258 s⁻¹
  kon: 178000 M⁻¹ s⁻¹
